Assay results: patent publication US11708423B2, “Chimeric engulfment receptor molecules and methods of use” (CERO THERAPEUTICS, INC., priority 2017, dated 2023)

How the values were obtained:
Format in all cases: cell-based
[1] = system: H1975 lung adenocarcinoma cells; assay: MTT viability of H1975 cells co-cultured with CER T cells and Osimeritinib
Source text: H1975 lung adenocarcinoma cells harboring an EGFR mutation were co-cultured with CER123- or CER126-modified or Mock-transduced (vector only) CD4+ T cells with increasing concentrations of Osimeritinib. CER123 has a polypeptide sequence as set forth in SEQ ID NO:150 and comprises a Tim4 binding domain, Tim4 transmembrane domain, and an engulfment signaling domain comprising a primary engulfment signaling domain comprising a TLR2 signaling domain and a secondary engulfment signaling domain comprising a TRAF6 signaling domain. CER126 has a polypeptide sequence as set forth in SEQ ID NO:174 and comprises a Tim4 binding domain, Tim4 transmembrane domain, and an engulfment signaling domain comprising a primary engulfment signaling domain comprising a TLR2 signaling domain and a secondary engulfment signaling domain comprising a TRAF2 signaling domain. CD4 T cells were transduced with a lentiviral vector comprising CER123 or CER126 nucleic acid and truncated EGFR (transduction marker) nucleic acid. Assays were performed using CER modified T cells purified by FACS using an EGFR specific antibody 7 days after activation using CD3 & CD28 microbeads. CER modified T cells and H1975 cells were co-cultured at effector:target cell ratio (E:T) of 1:1, 2:1, or 5:1. After 48 hours of co-culture in the presence of Osimeritinib (0, 250 nM, 500 nM, or 1000 nM), T cells were washed away, and the number of viable H1975 cells were quantified using a calorimetric MTT assay. Cell viability experiments were performed in triplicate and presented as % of control (FIG. 45A).

A549 ALK+ cells = assay: MTT viability and bright field microscopy of A549 ALK+ cells with CER T cells and ALK inhibitor; conditions: Alectinib 3.7 μM, 48 hours, vs mock-transduced T cells
Source text: An […] translocation was introduced into A549 cells. […] CER104 has a polypeptide sequence set forth in SEQ ID NO:133 and comprises a Tim4 binding domain, Tim4 transmembrane domain, and an engulfment signaling domain comprising a primary engulfment signaling domain comprising a TLR8 signaling domain and a secondary engulfment signaling domain comprising a DAP12 signaling domain. CER122 has a polypeptide sequence set forth in SEQ ID NO:149 and comprises a Tim4 binding domain, Tim4 transmembrane domain, and an engulfment signaling domain comprising a primary engulfment signaling domain comprising a TLR2 signaling domain and a secondary engulfment signaling domain comprising a DAP12 signaling domain. Effector:target (E:T) cell ratio for co-culture was 2:1 or 5:1. […] Cell viability experiments were performed in triplicates and presented as % of control. Best-fit curves were generated from raw data using linear regression models.
CER21−, CER108−, CER104−, and CER129-transduced CD4+ T cells were tested for their ability to kill A549 ALK+ cells in the presence of ALK inhibitor. CD4+ T cells were transduced with a lentiviral vector comprising a CER21, CER108, CER104, CER129, CER27, CER120, CER122, CER123, CER124, or CER126 nucleic acid. […] After 48 hours of co-culture, T cells were washed away and the number of viable A549 ALK+ cells was quantified using a calorimetric MTT assay (FIGS. 67A-B). Cell viability experiments were performed in triplicates and presented as % of control. Bright field microscopy images were also obtained from A549 ALK+co-culture experiments. […] Arrow indicates cluster of dead A549 ALK+ cells surrounded by phagocytic CER104+ T cells. […]

ALK+A549 cells = assay: Phagocytosis of ALK inhibitor treated A549 ALK+ cells by CER T cells (fluorescent microscopy); conditions: 2.5 μM Alectinib, 12 hours
Source text: An ELM4-ALK translocation was introduced into A549 cells. […] CD4 T cells are modified to express CER104 or CER117 and labeled with CELLTRACE Violet. CER117 has a polypeptide sequence set forth in SEQ ID NO:144 and comprises a Tim4 binding domain, a Tim4 transmembrane domain, and an engulfment signaling domain comprising a primary engulfment signaling domain comprising a TLR8 signaling domain and a secondary engulfment signaling domain comprising a TRAF6 signaling domain. The ALK+A549 cells were then co-cultured with CER104- or CER117-expressing CD4+ T cells or Mock-transduced (vector only) T cells for 12 hours and images were obtained by fluorescent microscopy at 40× magnification (FIGS. 62A-E). White arrows indicate exemplary phagocytic events (pH rodo red cell targets within CELLTRACE Violet labeled CD4+ T cells).
CER123- and CER126-transduced CD4+ and CD8+ T cells were labeled with CELLTRACE Violet and co-cultured with the A549 ALK-positive cells. Co-cultured cells were imaged by fluorescent microscopy at 63× magnification after 12 hours (FIGS. 63A-F). White arrows indicate exemplary phagocytic events (pHrodo red targets within CELLTRACE Violet-labeled CD4 T cells).
Phagocytosis of Alectinib-treated ALK+A549 cells by CER-expressing T cells was also quantified. […] Bar graph in FIG. 64A represents quantification of percentage phagocytosis calculated as ((number of phagocytic target events)/(total number of effector cells))*100. Events were calculated from fluorescent 3×3 stitched images at 40×resolution after 12 hours of co-culture. Bar graph in FIG. 64B represents quantification of adjusted phagocytic index calculated as (median area ratio of target events in effector cells*phagocytosis). Events calculated from fluorescent 3×3 stitched images at 40×resolution after 12 hours of co-culture.
CER21−, CER27−, CER30−, CER108−, CER110−, CER112−, CER120−, CER123−, CER124−, CER126−, CER127−, or CER104-transduced CD4+ T cells were co-cultured with Alectinib-treated A549 cells at a 1:1 ratio for 12 hours. Phagocytic events were calculated from 3×3 stitched fluorescent microscopy images at 40X resolution. […] Images were obtained after 12 hours of co-culture. Yellow triangles indicate exemplary phagocytic events (pHrodo red targets within CELLTRACE violet labeled CD4+ T cells).
A time course study of phagocytic uptake of tumor cells by CER-transduced T cells was performed. CD4+ T cells were transduced with a lentiviral vector comprising CER122 nucleic acid. Mock-transduced (vector only) CD4+ T cells were used as control. CER122-transduced T cells were labeled with CELLTRACE violet and co-cultured with pHrodo red labeled A549 ALK+ lung adenocarcinoma cells. Fluorescent microscopy images were obtained at 4, 8, and 16 hours co-culture (FIG. 72C), and % phagocytosis (FIG. 72A) and phagocytic index (FIG. 72B) were calculated.

B1: CER126: Tim4 binding and transmembrane domains, TLR2 primary and TRAF2 secondary signaling domains; SEQ ID NO:174 (protein)
chain: MSKGLLLLWLVTELWWLYLTPAASEDTIIGFLGQPVTLPCHYLSWSQSRNSMCWGKGSCPNSKCNAELLRTDGTRIISRKSTKYTLLGKVQFGEVSLTISNTNRGDSGVYCCRIEVPGWFNDVKKNVRLELRRATTTKKPTTTTRPTTTPYVTTTTPELLPTTVMTTSVLPTTTPPQTLATTAFSTAVTTCPSTTPGSFSQETTKGSAFTTESETLPASNHSQRSMMTISTDIAVLRPTGSNPGILPSTSQLTTQKTTLTTSESLQKTTKSHQINSRQTILIIACCVGFVLMVLLFLAFLHRFHGLWYMKMMWAWLQAKRKPRKAPSRNICYDAFVSYSERDAYWVENLMVQELENFNPPFKLCLHKRDFIPGKWIIDNIIDSIEKSHKTVFVLSENFVKSEWCKYELDFSHFRLFDENNDAAILILLEPIEKKAIPQRFCKLRKIMNTKTYLEWPMDEAQREGFWVNLRAAIKSMAAASVTPPGSLELLQPGFSKTLLGTKLEAKYLCSACRNVLRRPFQAQCGHRYCSFCLASILSSGPQNCAACVHEGIYEEGISILESSSAFPDNAARREVESLPAVCPSDGCTWKGTLKEYESCHEGRCPLMLTECPACKGLVRLGEKERHLEHECPERSLSCRHCRAPCCGADVKAHHEVCPKFPLTCDGCGKKKIPREKFQDHVKTCGKCRVPCRFHAIGCLETVEGEKQQEHEVQWLREHLAMLLSSVLEAKPLLGDQSHAGSELLQRCESLEKKTATFENIVCVLNREVERVAMTAEAC
modifications: CER126 protein
bright field images of H1975 co-culture ([1]; Osimeritinib 500 nM, vs control T cells (vector alone)): loss of H1975 cells
growth/viability of H1975 cells (MTT) ([1]; Osimeritinib 250, 500, 1000 nM, CD4+ T cells, E:T 1:1, 2:1, 5:1, 48 hours): synergistically suppressed
bright field microscopy of A549 ALK+ co-culture (A549 ALK+ cells): cluster of dead A549 ALK+ cells surrounded by phagocytic CER126^+ T cells
phagocytic elimination of ALK+A549 cells (ALK+A549 cells): phagocytic elimination of ALK+A549 cells
